{"source": "paper PMC10954734", "about": "“Structure of antiviral drug bulevirtide bound to hepatitis B and D virus receptor protein NTCP” (Nature Communications, 2024)", "key": {"[1]": {"test_system": "SVPs from patient ID1 (HBV GtD)", "test": "Binding of nanodisc-reconstituted NTCP-eYFP to SVPs of patient ID1 (GtD)", "details": "25–100 nM", "experimental": "(§1) The lipids were then mixed with detergent-purified NTCP and incubated at room temperature for 5 min with gentle agitation. Next, membrane scaffold protein (MSP1D1) was added to the mixture and incubated for 20 min at room temperature. […] Bio-Beads were removed by passing through a gravity column (Bio-Rad), and the mixture was briefly spun at 4000 × g at 4 °C to remove excess lipids. […] Peak fractions containing nanodisc-reconstituted NTCP were collected and concentrated.\n(§2) Subviral particles (SVPs) were isolated from plasma of two chronic HBV-infected patients by three consecutive ultracentrifugation steps according to published protocols[13]. Briefly, SVP were separated from virions using rate zonal ultracentrifugation through a sucrose density gradient. SVP-containing fractions were pooled and further purified using caesium chloride (CsCl) flotation ultracentrifugation. Pooled SVP-fractions were further purified using a second sucrose density gradient and concentrated by ultrafiltration. […] For fluorescence measurement, 100 μL HBS buffer was added to each well and the fluorescence intensity of eYFP was detected at 485 nm excitation and 535 nm emission on a fluorescence microplate reader (TECAN Life Sciences)."}, "[2]": {"test_system": "SVPs from patient K826 (HBV GtA)", "test": "Binding of nanodisc-reconstituted NTCP-eYFP to SVPs of patient K826 (GtA)", "details": "25–100 nM", "experimental": "as §1, §2"}}, "data": [{"molecule": "NTCP G158R: nanodisc-reconstituted NTCP-eYFP variant carrying the mutation G158R (protein, left off: eYFP, C-terminal, kept | rho-1D4, C-terminal, state not stated) MEAHNASAPFNFTLPPNFGKRPTDLALSVILVFMLFFIMLSLGCTMEFSKIKAHLWKPKGLAIALVAQYGIMPLTAFVLGKVFRLKNIEALAILVCGCSPGGNLSNVFSLAMKGDMNLSIVMTTCSTFCALGMMPLLLYIYSRGIYDGDLKDKVPYKRIVISLVLVLIPCTIGIVLKSKRPQYMRYVIKGGMIIILLCSVAVTVLSAINVGKSIMFAMTPLLIATSSLMPFIGFLLGYVLSALFCLNGRCRRTVSMETGCQNVQLCSTILNVAFPPEVIGPLFFFPLLYMIFQLGEGLLLIAIFWCYEKFKTPKDKTKMIYTAATTEETIPGALGNGTYKGEDCSPCTA", "values": [{"measurement": "binding to GtD SVPs (in words)", "setting": "[1]", "value": "abolished binding to the SVPs"}, {"measurement": "binding to GtA SVPs (in words)", "setting": "[2]", "value": "abolished binding to the SVPs"}]}]}
